Measured values: publication PMC3170469

Legend:
[1] = target: hydrogen peroxide treated recombinant human interferon beta-1a (human) (UniProt P01574); assay: SEC
[2] = target: metal-catalyzed oxidized recombinant human interferon beta-1a (human) (UniProt P01574); assay: SEC

Row | oligomer fraction (%) [1] [%] | oligomer fraction (%) [2] [%] | Substance
1 | 7 |  | hydrogen peroxide treated recombinant human interferon beta-1a (from UniProt P01574 22-187) (natural protein)
2 |  | 68 | metal-catalyzed oxidized recombinant human interferon beta-1a (from UniProt P01574 22-187) (natural protein)
